Reference: patent US20090317333

System: AKAR3 (A-Kinase Activity Reporter 3)

“catalytic subunit of PKA (protein kinase A), as used in the in vitro kinase assay” was tested, and the “FRET efficiency of AKAR3 after phosphorylation (trypsin quantification)” value was 38.8%±7.36% and 47.2%±7.67% (n=2) before and after phosphorylation, respectively, the “FRET efficiency of AKAR3 before phosphorylation (trypsin quantification)” value was 38.8%±7.36% and 47.2%±7.67% (n=2) before and after phosphorylation, respectively and the “increase of the emission ratio of AKAR3 over approximately 40 minutes after addition of ATP (in vitro kinase assay)” value was 29.1%±1.11% (n=2).
